Our source for the decrease in CTSG enzymatic activity (cleavage of a specific substrate, release of pNA) values is patent EP3349768A1.

This assay addresses T1, Cathepsin G (CTSG) from mouse bone marrow cell lysates (mouse) (UniProt P28293).
T1 sequence (looked up): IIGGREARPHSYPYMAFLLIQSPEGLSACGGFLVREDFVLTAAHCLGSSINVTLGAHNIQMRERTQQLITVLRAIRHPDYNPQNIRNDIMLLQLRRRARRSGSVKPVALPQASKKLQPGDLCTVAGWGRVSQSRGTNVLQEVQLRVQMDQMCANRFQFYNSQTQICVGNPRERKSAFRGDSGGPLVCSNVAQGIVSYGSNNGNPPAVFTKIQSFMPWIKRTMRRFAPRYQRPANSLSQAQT
Put plainly: cell-based or functional assay.

B1: LKAb antibody (anti-Cathepsin G scFv, purified as scFv-Fc fusion protein) (Fc fusion, part only; not given: Fc tag, part only)
scFv, part: MAQVQLVQSGAEVKKPGASVKVSCKASGYTFTSYYMHWVRQAPGQGLEWMGGIIPIFGTGNYAQKFQGRVTITADESTSTAYMELSSLRSEDTAVYYCAREEEQQFSLDYWGQGTLVTVSSGGGGGLSNFMLTQPHSVSESPGKTVTISCTRSSGSIASNSVHWYQQRPGSAPTTVISENNQRPSGVPDRFSGSIDSSSNSASLTISGLKTEDEADYYCQSYDSNFHWVFGGGTQLTVLG
B1 yielded a decrease in CTSG enzymatic activity (cleavage of a specific substrate, release of pNA) of 50%.
